From patent US20170260241A1 (KEMYTH BIOTECH, published 2017)

Assays:
[1] = target: T1, recombinant TLR4 protein; assay: competition ELISA: TLR4 coated (2 µg/mL), MD2 (50 nM) mixed with titrated peptide, residual bound MD2 detected with anti-MD2 and anti-mouse IgG-HRP, OD450; competed ligand: MD2
T1 construct: also called Toll-like receptor 4

[2] = target: T1, recombinant TLR4 protein; assay: competition ELISA: peptide titrated from 50 µM to 3.05 nM against MD2 (50 nM) on plate-coated TLR4; competitor MD2

Binder | IC50 (read off the curve) [1] | Ki [2]
C70PLY4 (C-terminal 70 amino acid fragment of pneumolysin, 402-471 amino acid residues) (peptide) peptide: QDLTAHFTTSIPLKGNVRNLSVKIRECTGLAWEWWRTVYEKTDLPLVRKRTISIWGTTLYPQVEDKVEND | ~300 nM | 74.8 nM
QDLTAHFTTSIPLKGNVRNLSVKIRECTGLAWEWW [N35PLY4 (N-terminal 35 amino acid fragment of C70PLY4, 402-436 amino acid residues)] |  | 11200 nM
